What was measured:
[1] = target: cyno PD-1_Fc (cyno); experiment: bio-layer interferometry (ForteBio), Fab in solution, cyno PD-1_Fc on sensor tip
[2] = target: human PD-1 on cells (CHO cells; T cells in the mixed lymphocyte reaction) (human) (UniProt Q15116); experiment: cell-based or functional assay
[3] = target: human PD-1 on cells (CHO cells; T cells in the mixed lymphocyte reaction) (human) (UniProt Q15116); experiment: flow cytometry, remaining PD-L2-FITC signal after 100 nM IgG; competitor PD-L2-FITC

Sequence of human PD-1 on cells (CHO cells; T cells in the mixed lymphocyte reaction) (human) (Q15116 25-288 limits assumed): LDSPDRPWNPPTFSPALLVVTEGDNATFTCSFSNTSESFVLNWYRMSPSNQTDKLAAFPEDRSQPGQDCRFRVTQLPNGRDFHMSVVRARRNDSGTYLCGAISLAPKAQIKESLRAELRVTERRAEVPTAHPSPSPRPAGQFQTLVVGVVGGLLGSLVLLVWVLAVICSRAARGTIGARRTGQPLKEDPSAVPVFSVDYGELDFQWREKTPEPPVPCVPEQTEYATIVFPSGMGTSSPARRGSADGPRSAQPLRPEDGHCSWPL
Sequence of Fab of pembrolizumab (VH): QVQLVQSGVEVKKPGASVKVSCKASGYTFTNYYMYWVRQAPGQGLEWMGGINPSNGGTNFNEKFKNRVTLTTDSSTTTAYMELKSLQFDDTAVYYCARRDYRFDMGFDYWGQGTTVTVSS
Sequence of Fab of pembrolizumab (VL): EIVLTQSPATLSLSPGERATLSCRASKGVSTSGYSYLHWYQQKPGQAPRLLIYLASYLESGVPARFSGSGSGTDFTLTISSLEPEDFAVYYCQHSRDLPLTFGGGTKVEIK

Substance	Kd [1]	IFNγ in supernatant, 0.01 nM IgG (IgG control, baseline of the fold change) [2]	IFNγ in supernatant, 0.1 nM IgG (IgG control, baseline of the fold change) [2]	IFNγ in supernatant, 1 nM IgG (IgG control, baseline of the fold change) [2]	IFNγ in supernatant, 10 nM IgG (IgG control, baseline of the fold change) [2]	IFNγ in supernatant, 100 nM IgG (IgG control, baseline of the fold change) [2]	IL-2 in supernatant, 0.01 nM IgG (IgG control, baseline of the fold change) [2]	IL-2 in supernatant, 0.1 nM IgG (IgG control, baseline of the fold change) [2]	IL-2 in supernatant, 1 nM IgG (IgG control, baseline of the fold change) [2]	IL-2 in supernatant, 10 nM IgG (IgG control, baseline of the fold change) [2]	IL-2 in supernatant, 100 nM IgG (IgG control, baseline of the fold change) [2]	MFI (PD-L2-FITC) [3]
Fab of nivolumab	1.2 nM	–	–	–	–	–	–	–	–	–	–	–
Fab of pembrolizumab	0.47 nM	–	–	–	–	–	–	–	–	–	–	–
IgG Control (antibody)	–	14900 pg/mL	11000 pg/mL	11600 pg/mL	13500 pg/mL	14900 pg/mL	515 pg/mL	509 pg/mL	500 pg/mL	522 pg/mL	619 pg/mL	183000 MFI
